Measurements published in patent publication US20180200331A1, “BST-2 AS A THERAPEUTIC TARGET AND DIAGNOSTIC MARKER FOR BREAST CANCER GROWTH AND METASTASIS” (University of Iowa Research Foundation, priority 2015, published 2018).

Assays:
BST-2 = experiment: Adhesion of cancer cells to plates coated with recombinant BST-2; type: cell-based; details: plates coated with 0, 20 or 50 ng rBST-2
Method: (§1) FIG. 22. […] PKH67Green-labeled shControl (shCTL)- or sh413 (shBST-2)-expressing (A) 4T1 or (B) E0771 cells were allowed to adhere to plates that were coated with 0, 20 or 50 ng of recombinant BST-2 (rBST-2) and fluorescence assessed with a plate reader. (C) Representative confocal images of cells attached to wells coated with increasing concentrations of rBST-2. (D) Quantification of PKH67Green-labeled MCF-7 cells expressing Vector, WT or C3A BST-2 adhered to plates that were coated with 0, 20 or 50 ng of rBST-2. […] Cells that adhered to WT MCF-7 monolayers were quantified and represented as relative fluorescence intensity. Each data point corresponds to six different wells analyzed. Error bars correspond to SEM. Significance was taken at P<0.05* and P<0.01**. n.s=not significant.
Low BST-2 expressing human breast cancer cells (MCF-7) stably expressing WT BST-2 (WT) efficiently binds BST-2 ECD while similar cells stably expressing dimerization mutant BST-2 (C3A) are defective in binding BST-2 ECD. Treatment of BST-2-expressing breast cancer cells with BST-2 ECD blocks cancer cell-to-cancer clustering (FIG. 22).

MCF-7 cells = experiment: Adhesion to MCF-7 WT monolayers blocked with rBST-2; type: cell-based, human
Method: as §1

B1: rBST-2: recombinant extracellular domain (ECD) of BST-2 (protein, UniProt Q10589 49-161, looked up)
extracellular domain: NSEACRDGLRAVMECRNVTHLLQQELTEAQKGFQDVEAQAATCNHTVMALMASLDAEKAQGQKKVEELEGEITTLNHKLQDASAEVERLRRENQVLSVRIADKKYYPSSQDSS
modifications: extracellular domain
With B1 the “binding to BST-2” value (BST-2) was “binds to BST-2 in vitro” and the “BST-2-mediated adhesion of breast cancer cells” value (MCF-7 cells) was “prevents BST-2-mediated adhesion of breast cancer cells”.
